Molecular target: the molecule itself
Assay: SEC; analytical gel filtration, Superdex-200 10/300GL, 50 mM Tris pH 7, 500 mM NaCl, 5% glycerol; mass against protein standards

B1: Tsi2–H6 (C-terminal hexahistidine-tagged Tsi2) (natural protein)
chain: MNLKPQTLMVAIQCVAARTRELDAQLQNDDPQNAAELEQLLVGYDLAADDLKNAYEQALGQYSGLPPYDRLIEEPAS
notes: source: E. coli BL21 pLysS, purified (HisTrap FF, Sephacryl S-200 size exclusion); not shown: His6, C-terminal, kept
  stoichiometry N: 2

Source: article PMC3325213 (PLoS Pathogens, 2012)
